# Publication PMC3909184
# Target: CXCR4 (human) (UniProt P61073)
# Sequence of UniProt P61073 (P61073 whole entry): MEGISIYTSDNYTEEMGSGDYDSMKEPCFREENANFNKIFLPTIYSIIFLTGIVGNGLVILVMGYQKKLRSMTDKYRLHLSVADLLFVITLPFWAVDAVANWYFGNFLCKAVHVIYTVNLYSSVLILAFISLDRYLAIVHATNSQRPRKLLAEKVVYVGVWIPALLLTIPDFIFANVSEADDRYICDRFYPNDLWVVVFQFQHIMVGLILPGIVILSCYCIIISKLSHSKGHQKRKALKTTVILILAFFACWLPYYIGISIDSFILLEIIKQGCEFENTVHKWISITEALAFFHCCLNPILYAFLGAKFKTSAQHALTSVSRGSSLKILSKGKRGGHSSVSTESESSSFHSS
substance,measurement,value
WT CXCL12 (from UniProt P48061 22-93) (ligand),"EC50 of Kir3* K+ current activation (TEVC, -50 mV) in Xenopus oocytes co-expressing CXCR4 and Kir3.1* or Kir3.4*; dose-response",0.023 µM
